Source: paper PMC4823740
“And” between values parts separate entries of the source, which are not always exact repeats. Equal values may be shown once.

Assays:
[1] = target: Aggregation Suppressing Protein A (AgsA) wild type, tagless (Salmonella enterica serovar typhimurium LT2); assay: SEC-MALS; separated 24-mer fraction of the wild type after size exclusion chromatography; Superdex 200 10/300, 20 mM Tris, 50 mM NaCl, pH 7.5
[2] = target: Aggregation Suppressing Protein A (AgsA) wild type, tagless (Salmonella enterica serovar typhimurium LT2); assay: SEC-MALS; unseparated wild type protein; Superose 6 10/300, 20 mM Tris, 200 mM NaCl, pH 8.0; about 100 uL of 2 mg/mL injected
[3] = target: Aggregation Suppressing Protein A (AgsA) wild type, tagless (Salmonella enterica serovar typhimurium LT2); assay: SEC-MALS; separated 18-mer fraction of the wild type after size exclusion chromatography; Superdex 200 10/300, 20 mM Tris, 50 mM NaCl, pH 7.5
[4] = target: AgsA:His-DD, hexa-histidine tagged double deletion construct of AgsA (Salmonella enterica serovar typhimurium LT2); assay: SEC; analytical SEC, Superose 6 10/300, 20 mM Tris, 50 mM NaCl, pH 7.5, calibrated with molecular weight markers; oligomeric state in solution
[5] = target: core ACD fragment of AgsA:His-DD (degraded fragment in the crystal, residues 35-147) (Salmonella enterica serovar typhimurium LT2); assay: crystal structure; AgsA:His-DD degraded in the drop; 25% pentaerythritol propoxylate (5/4 PO/OH), 0.1 M MES pH 6.0, 20% MPD, 20 °C; space group P4(1)2(1)2, 2.0 Å
[6] = target: AgsA:DD, double deletion AgsA lacking 11 residues at the N-terminus and 9 residues at the C-terminus, tagless (Salmonella enterica serovar typhimurium LT2); assay: crystal structure; AgsA:DD; 30% polypropylene glycol 400, 0.1 M NaCl, 20 °C; space group R32, 3 dimers in the asymmetric unit, 7.5 Å
[7] = target: AgsA:DD, double deletion AgsA lacking 11 residues at the N-terminus and 9 residues at the C-terminus, tagless (Salmonella enterica serovar typhimurium LT2); assay: SEC; analytical SEC, Superose 6 10/300, 20 mM Tris, 50 mM NaCl, pH 7.5, calibrated with molecular weight markers; oligomeric state in solution
[8] = target: AgsA:DelC, AgsA lacking 9 residues at the C-terminus, tagless (Salmonella enterica serovar typhimurium LT2); assay: crystal structure; AgsA:DelC; 30% pentaerythritol propoxylate (5/4 PO/OH), 0.1 M MES pH 6.0, 30% glycerol, 20 °C; space group I23, a dimer in the asymmetric unit, 4.1 Å
[9] = target: AgsA:DelC, AgsA lacking 9 residues at the C-terminus, tagless (Salmonella enterica serovar typhimurium LT2); assay: SEC; analytical SEC, Superose 6 10/300, 20 mM Tris, 50 mM NaCl, pH 7.5, calibrated with molecular weight markers; oligomeric state in solution

Aggregation Suppressing Protein A (AgsA) wild type, tagless (natural protein)
stoichiometry N [1]: 18 and 24
stoichiometry N [2]: 18 and 24
stoichiometry N [3]: 18

AgsA:His-DD, hexa-histidine tagged double deletion construct of AgsA (domain or fragment)
stoichiometry N [4]: 24

core ACD fragment of AgsA:His-DD (degraded fragment in the crystal, residues 35-147) (domain or fragment)
stoichiometry N [5]: 2

AgsA:DD, double deletion AgsA lacking 11 residues at the N-terminus and 9 residues at the C-terminus, tagless (domain or fragment)
stoichiometry N [6]: 18
stoichiometry N [7]: 18

AgsA:DelC, AgsA lacking 9 residues at the C-terminus, tagless (domain or fragment)
stoichiometry N [8]: 24
stoichiometry N [9]: 24
